Common to all, as to test: cell-based or functional assay
Test [1] concerns the target T1, FcγIIIA Receptor on the effector cells (CD16 / FcγRIII) (human, UniProt P08637 17-254).
The target in test [2] is T1, FcγIIIA Receptor on the effector cells …. The source holds these as a separate data set.
For test [3] the target is unchanged. This is another data set of the same source.
The target in test [4] is C1q Receptor in the complement system (rabbit serum as the source of complement) (rabbit).

T1 sequence (P08637 17-254): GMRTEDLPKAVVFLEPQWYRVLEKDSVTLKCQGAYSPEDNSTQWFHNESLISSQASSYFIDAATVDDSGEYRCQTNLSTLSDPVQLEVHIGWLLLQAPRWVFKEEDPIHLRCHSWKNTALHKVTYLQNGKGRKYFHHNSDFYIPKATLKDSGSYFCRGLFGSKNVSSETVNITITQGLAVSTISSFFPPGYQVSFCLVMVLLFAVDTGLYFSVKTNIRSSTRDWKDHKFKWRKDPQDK

B1: TG-1101 (TG Therapeutics, Inc.) (antibody, human IgG1, kappa)
heavy: not shown
light: QIVLSQSPAILSASPGEKVTMTCRASSSVSYMHWYQQKPGSSPKPWIYATSNLASGVPARFSGSGSGTSYSFTISRVEAEDAATYYCQQWTFNPPTFGGGTRLEIKRTVAAPSVFIFPPSDEQLKSGTASVVCLLNNFYPREAKVQWKVDNALQSGNSQESVTEQDSKDSTYSLSSTLTLSKADYEKHKVYACEVTHQGLSSPVTKSFNRGEC
As for B1, in test [1], the “ADCC EC50, fold lower than OCREVUS” value was roughly 25 fold. For the same molecule, the “ADCC EC50 (Raji target cells, KILR CD16a effector cells)” value in test [2] was 0.00242 ng/mL. For the same molecule, the “EC50 of ADCC assay Using Primary NK Cells” value in test [3] was 49000 ng/mL. Besides, in test [4], the “CDC EC50 (Jeko-1 cells, rabbit complement)” value worked out at 670 ng/mL.
